assay: yeast display, Sf9 membrane polyspecificity reagent, FACS + sequencing; frameworks hold sequencing errors
Procedure, shortened: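 A nanobody's polyreactivity label depends on the gate it was sorted from. Yeast display cells were stained with 10% biotinylated, detergent-solubilized Sf9 membrane reagent for 1 hour at 4 °C, enriched on streptavidin microbeads and sorted by FACS. The low and high (top ~1%) gates were set on anti-HA fluorescence for expression and streptavidin fluorescence for reagent binding.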

Sequence | polyreactivity (PSR sort gate)
QVKLVESGGGLVQAGGSLRLSCDASGFIFSLYAMGWYRQEHGKERDLVAAISKRGGSTNYADSVKGRFTISRDNAKNTVYLQMNSLKTEDTAVYYCAKARPVFLYDHWGQGTQLTVSS | high polyreactivity
QVKLVESGGGLVQAGGSLRLTCAASGFTFTPNAMGWYRQAPGKEMELVAAITRSSGRTYYADSVKGRFTISRDNAKNTVYLQMNSLKPEDTAVYYCAARYASTPYARFGFWGQGTQVTVSS | high polyreactivity
QVKLVESGGGLVQAGGSLRLTCAASGRIFEDYVMGWYIKAPGKERELVAGISGSGGITYYADSVKGRFTISRDNAKNTVYLQMNSLKPEDTAVYYCATAAASHKYGYWGQGTQVTVSS | low polyreactivity
QVKLVESGGGLVQAGGSLSLSCAASGSTIGGYAMGWYRQAPGKERELVAAIRRSGDSTYYADSVKGRFTISRDNAKNTVYLKMNRLKPEDTAVYYCAASYLHYRYRGRDYWGQGTQVTVSS | low polyreactivity
QVKLVESGGGLVQEGGSLRLSCAASGRIFGNYAMGWYRQAPGKERELVAAIDLSGDSTYYADSVKGRFTISRDNAKNTVYLQMNSLKPEDTAVYYCAATDWFSEYFWGQGTQVTVSS | low polyreactivity
QVKLVESGRGLVHAGGSLRLSSAASANTFPPNARGCYIPAPGKERELVSAISRSGVSTYYADSVKGRFTISRDNANNTVYLQMNSLKPEDTAVYYCAAPLIYTPLKYHYWGQGTQVTVSS | low polyreactivity
QVKLVESGRGLVQAGGSLRLSCAASGITFRSYAMGWYINATGKERELVATLSSSGGNTNYADSVKGRFTISRDNAKNTVYLQMNSLKPEDTAVYYCAAELWRYYYVVPGRYDDWGQGTQVTVSS | high polyreactivity
QVKLVETGGGLVQAGGSLRLSCAASGSTFGLYAMGWYRQAPGKERELVAAITWRGGRTYYADSVKGRFTISRDNAKNTVDLQMNSLKPEDTAVNFCAKGYDYYVRRYYYWGQGTQVTVSS | high polyreactivity
QVKRVESGGGLVHAGGSLRLSCPASGRTVAKYAMGGYRQEPGKARELVAAITSSGGITYYAESVQGRYTISRDNAKNIVYLQMNSLKREDTAFYYCAVKTFQVGTFRRYYYWGQGTQVTVSS | high polyreactivity
QVKRVESGGVLVQAGGSLRLSCAASGFIFLLNDMGWYRQAHGKERDLVAAISRGGGSTYYADSVKGRFTISRDNAKNTVYLQMNSLKPEDTAVYYCAAKPGKTPLTGHRGPYDTGYGYCGQGTQVTVSS | low polyreactivity
QVLIEDSGGGLVQAGGSLRLSCAASGSIFYFYAMGWYRQAPGKERELVAAISYSVGSTYYADSVKGRFTISRVNAKNTVYLQMNSLKPEDTAVDYCAADYYYGAWDGYGDEKYYYWGQGTQVTVSS | low polyreactivity
QVLLQESGGGLVQAGGSLRLGCAASGTISPAYYMGRYHHAPGKEREFVAAITYGTNTYYADSVKGRFTISRDNAKNTVNLQMNSLKPADTAVYYCSATAGYNGAHDYWGQGTQVTVSS | low polyreactivity
QVLLQESGGGLVQAGGSLRLSCAASGSIFLFYTMGWYRQAPVKEREFVAGITLGTTTYNADSVKGRFTISRDNVKNTLYLQMNSLKPEDTAVYYCAVAVGHYTEFWYWGQGTQVTMSS | high polyreactivity
QVLLQESGGGLVQAVGSLRLGCAASGTISPAYDIGRNHLAPGREREFVAAMTYGTNSYYSDSVKGRFTMSRDNAKNTVFLKMTSLKTEDTAVFYFSATGGYNCAHDYWGQGTQVTVSS | low polyreactivity
QVLLVESGGGLVQAAGSLRLSCAASGSISIGYTMGWYIQAPGKERELVATISWSGGNTYYADSVKWRFTISRDNAKNTVYLQMNRLKPEDTAVYYCAAKSSTRGDYWGQGTQVTVSS | low polyreactivity
QVLLVESGGGLVQAGGSHRLSCAASGFIFWDYAKGGYRQAPGKERELVAAITSGGGSTYYADSVKGRFTISRDNAKNTVYLQMNSLKPEDTAVYYCNAVSWEGYDFDYWGQGTQVTVSS | high polyreactivity
QVLLVESGGGLVQAGGSLRLSCAASGRIFGYNTMGWYRQAPGKERELVASISYSGGGTYYADSVKGRFTISRDNAKNTVYLQMNSLKPEDTAVYYCNALSYGYDDAYGYWGQGTQVTVSS | low polyreactivity
QVLLVESGGGLVQAGGSLRLSCAASGYIIDVNAMGWYRQAPGKERELVASISSGTSTYYADSVKGRFTISRDNAKNTVYLQMNSLKPEDTAVYYCNAGVEFAASLYYSDNYDYWGQGTQVTVSS | low polyreactivity
QVLLVESGGGLVQAGGSLRLSCGASGITFAEYAMGWYRKAPGKEREFVAAISRRGGSTYYADSVKGRFTISRDNAKNTVYIQMNTLKPEDTAVYYCNRRYDTFRFEHDYDYWGQGTQVTVSS | low polyreactivity
QVLLVETGGGLVQAGGSLRLSCAASGLIFYDNMGWYRQAPGKERELVAAISSSGGSTSYADSVKGRFTISRDNAKNTVYLQMNSLKPEDTAVYYCAADSYPAYLGFVGFDYWGQGTQVTVSS | low polyreactivity
QVNLVESGGGLVQAGGSLRLSCAASGLIFFYAMGWYRQAPGKERELVAGISSGGNTNYGDSVKGRFTISRDNAKNTVYLQMNSLKPEDTAVYYCNARGFTGDHQWYLWARPLYDYWGQGTQVTVSS | high polyreactivity
QVNLVESGGGLVQAGGSLRLSCAASGRTFRFYVMGWYRQAPGKERELVAVIRYRGGSTYYADSVKGRFTISRDNAKNTVYLHMNSLKPEDTAVYYCNADFLLAGNEYDFWGQGTQVTVSS | high polyreactivity

Sequence | polyreactivity (PSR sort gate)
QVPLEESGGGLVQAGGSLRLSCAASGFIIGLNAMGWYRQAPGKERELVAVITFSGGSTYYADSVKGRFTISRDNAKNTVFFQMNSLKPEDTAVYYCAARYYWYSVGYGYWGQGTQVTVSS | high polyreactivity
QVPLEESGGGLVQAGGSLRLSCAASGSIFMTYSMGWYRKAPGNERELVAAISWRGGSTYYADSVKGRFTISRDNAKNTVYLQMNSMKPVDTAVYYCAADYYRYGYQGSTTEDDYWGQGTLVTVSS | low polyreactivity
QVPLEESRGGLVQAGGSLRLSCAASGTIFVAYDMGWYRQAPGKERELVAAIDSVGRTNYADSVKGRFTISRDNAKNTVYLQMNSLKPEDTAVYYCNADQYYSFYDPDDYWGQGTQVTVSS | low polyreactivity
QVPLVESAGGLVQAGGSLRLSCAASGSTFYPYAMGWYRQAPGKERELVAAISSGGSTSYADSVKGRFTISRDNAKNTVYLQMNSLKPEDTEVYYCHASSPGAVPVYDYDYWGQGTQVTVSS | low polyreactivity
QVPLVESGGGLVQAGGSLRISCAACGIIFFPYAMGWYRQAPGKEREFVAAITSRGGSTYYADSVKGRFTISRDNAKNTVYLQMNSLKPEDTAVYFCAADHLGRARGPWRYNYWGQGTQVTVSS | low polyreactivity
QVPLVESGGGLVQAGGSLRLMCAASGRIFALYAMGWYRQAPGKERELVAAISWSAGRTYYADSVKGRFTISRDNAKNTVYLQMNSLKPEDTAVYYCAADTGRQYDYWGQGTQVTVSS | high polyreactivity
QVPLVESGGGLVQAGGSLRLSCAASGRISGYYDMGWYRQAPGKERELVATITSDGGTNYADSVKGRFTISRDNAKNTVYLQMNSLKPEDTAVYYCAAYGWYTKWHFAFGYWGQGTQVTVSS | low polyreactivity
QVPLVESGGGLVQAGGSLRLSCAASGSIFYTNAMGWSIPAPGKERELVARLSSSSGRTYYADSVKGRFPISRDNAKNTVYLKMKSLIPDYTAVYYCAARYLLRRHTNMDYWGHGTQVTVSS | high polyreactivity
QVPLVESGGGLVQAGGSLRLSCAASGSTLYGYAMGWSSQAPGKERELVAAISYSGGRTFYADSVKGRFTISRDNAKNTVYLQMNSLKPADSAVYYCAAEYTVYVTDWYDYYDWGQGTQVTVAS | low polyreactivity
QVPLVESGGGLVQAGGSLRLSCAPSGSTYYFYTMGWYIQAPGKERELVAAIRDSGSSTYYADSVKGRFTISRDNAKNTVYLQMNSLKPEDTAVYYCATGVDTYSLTVEHDSWGQGTQVTVSS | low polyreactivity
QVPLVESGGGLVQGGGSLRLSCAASGSIFRGNAMGWYRQAPGKERELVAAISKSGGSTYYADSVKGRFTISRDNAKNTVYLHMNSLKPEDTAVYYCAARTTYLYGRYYWGQGTQVTVSS | low polyreactivity
QVPLVESGGGVVQAGGSLRLSCAASGSIFNVNAMGWYRPAPGKERELVAAISSGGDTYYADSLKGRFTISRDNAKNTVYLQMNSLKPEDTAVYYCAAEIYTAYYEFDYWGQGTQVTVSS | low polyreactivity
QVPLVESGGVLVQAGGSLRLSFAASGRIYENAMGWYRQAPVNERELVAVISWSGGSKSYADSVKRRLTISRDNAMNTVYFQMNRLKPEDTAVYYCNAYRLLSRRYYYLGQGTQVTVSS | low polyreactivity
QVPLVESGVGLVQAGGSLRLSCAASGSIFSYYAMGWYRQATGKERELVAAITVRGGSTYYADSVKGRFSISRDNAKNTVYLQMYSLIPEDTAVYYCAAVWLDESFSYGPYYYWGQGTQVTVSS | low polyreactivity
QVPLVESGVGLVQAGGSLRLSCAASGSTISYYYMGWYRQAPGKEREFVAAIRRRGSSTYYADSVKGRFTISRDNAKNTVYLQINSLKPEDTAVYYCAKRTIAGRGRQYDYWGQGTQVSVSS | high polyreactivity
QVQFVESGGALVQAGGSLRLSCAASGSTFQGYAMGWYRQAPGKETELVAAISRSGGRTYYADSVTGRFTISRDNAKNTVYLQMISLKPEDTAVYYCAAEGHELTDGDSWGQGTQVTVSS | low polyreactivity
QVQFVESGGGLVQAGGSLRLSCAASGFTFVWYDMGGYRQAPGKERELVAAISSGGSTYYADSVKGRFTISRDNAKNTVYLQMNSLKPEDTAVYYCAVYTGYYNYIYQYDYWGQGTQVTVSS | low polyreactivity
QVQFVESGGGLVQAGGSLRLSCAASGFTFVWYDMGWYRQAPGKERELVAAISSGGSTYYADSVKGRFTISRDNAKNTVYLQMNSLKPEDTAVYYCAVYTGYYNYIYQYDYWGQGTQVTVSS | low polyreactivity
QVQGVESGGGLVQAGGSLRLSCAASGLTFKENVMGWYRKAPGKERELVAAISTGASTYYADSVKGRFTISRDNANNTVYLQMNSLKPEDTAVYYCAAERWAQGYTYEYWGQGTQVTVSS | high polyreactivity
QVQHEESGGGLVQAGGSLRLSCAASGRIFFGKVMGGYRQAPGTERELVAVITSGGNTNYADSVKGRFTISRDNAKNTVYLQMHSLKPEDTAVYYCATAVVAGVWGYDYWGQGTQVTVSS | low polyreactivity
QVQHEESGGGLVQAGGSLRLSCAASGRIFGTDAMGWFRQAPGKDRELVAAIRSSGDSTYYADSVKGRFTISRDNAKNTVYLQMNSLKPEDTAVYYCARTLRYYRPVLLVYRFGYWGQGTQVTVSS | high polyreactivity
